Assay in all cases: cell-based or functional assay
The target in experiment [1] is T1, human GIP receptor (human, UniProt P48546 22-466).
T1 sequence: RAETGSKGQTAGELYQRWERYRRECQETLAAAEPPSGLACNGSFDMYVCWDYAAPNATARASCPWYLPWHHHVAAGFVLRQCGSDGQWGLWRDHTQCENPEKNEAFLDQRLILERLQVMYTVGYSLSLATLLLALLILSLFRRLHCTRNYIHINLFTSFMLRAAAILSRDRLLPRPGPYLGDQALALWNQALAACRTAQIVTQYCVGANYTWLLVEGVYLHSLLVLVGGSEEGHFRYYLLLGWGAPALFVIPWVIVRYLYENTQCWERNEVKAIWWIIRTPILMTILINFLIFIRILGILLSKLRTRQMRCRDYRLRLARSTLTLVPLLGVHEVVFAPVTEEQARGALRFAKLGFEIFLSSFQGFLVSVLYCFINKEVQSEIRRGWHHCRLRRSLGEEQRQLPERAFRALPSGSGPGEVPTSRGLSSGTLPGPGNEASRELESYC

Experiment [2] deals with T2, human glucagon-like peptide 1 receptor (human, UniProt P43220 24-463).
Experiment [3] addresses T3, human glucagon receptor (human, UniProt P47871 26-477).
Experiment [4] addresses T1, human GIP receptor. The source holds these as a separate data set.
Experiment [5] has as its target T2, human glucagon-like peptide 1 receptor. This is another data set of the same source.
For experiment [6], the target named is T3, human glucagon receptor. The source holds these as a separate data set.

Read-outs that look alike come from different tables or passages of the source.

T3 sequence (P47871 26-477): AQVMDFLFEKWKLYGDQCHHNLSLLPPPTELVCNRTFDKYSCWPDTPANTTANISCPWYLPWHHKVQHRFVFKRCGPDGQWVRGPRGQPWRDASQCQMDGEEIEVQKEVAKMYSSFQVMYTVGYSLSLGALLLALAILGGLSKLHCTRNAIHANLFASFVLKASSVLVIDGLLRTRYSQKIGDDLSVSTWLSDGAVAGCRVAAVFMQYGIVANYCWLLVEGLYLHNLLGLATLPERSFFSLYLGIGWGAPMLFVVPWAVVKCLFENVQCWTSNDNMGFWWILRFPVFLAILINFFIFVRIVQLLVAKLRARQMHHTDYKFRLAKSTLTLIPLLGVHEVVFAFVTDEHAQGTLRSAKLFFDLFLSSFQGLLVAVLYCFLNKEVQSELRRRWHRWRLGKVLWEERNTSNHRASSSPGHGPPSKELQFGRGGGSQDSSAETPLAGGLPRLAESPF

B1: Compound 20 (peptide)
peptide: YAQGTFTSDYSIYLEKKAAKEFVEWLLSA
HELM: PEPTIDE1{Y.[Aib].Q.G.T.F.T.S.D.Y.S.I.Y.L.E.K.K.A.A.K.E.F.V.E.W.L.L.S.A.[am]}$$$$V2.0
SMILES: CC[C@H](C)[C@H](NC(=O)[C@H](CO)NC(=O)[C@H](Cc1ccc(O)cc1)NC(=O)[C@H](CC(=O)O)NC(=O)[C@H](CO)NC(=O)[C@@H](NC(=O)[C@H](Cc1ccccc1)NC(=O)[C@@H](NC(=O)CNC(=O)[C@H](CCC(N)=O)NC(=O)C(C)(C)NC(=O)[C@@H](N)Cc1ccc(O)cc1)[C@@H](C)O)[C@@H](C)O)C(=O)N[C@@H](Cc1ccc(O)cc1)C(=O)N[C@@H](CC(C)C)C(=O)N[C@@H](CCC(=O)O)C(=O)N[C@@H](CCCCN)C(=O)N[C@@H](CCCCN)C(=O)N[C@@H](C)C(=O)N[C@@H](C)C(=O)N[C@@H](CCCCN)C(=O)N[C@@H](CCC(=O)O)C(=O)N[C@@H](Cc1ccccc1)C(=O)N[C@H](C(=O)N[C@@H](CCC(=O)O)C(=O)N[C@@H](Cc1c[nH]c2ccccc12)C(=O)N[C@@H](CC(C)C)C(=O)N[C@@H](CC(C)C)C(=O)N[C@@H](CO)C(=O)N[C@@H](C)C(N)=O)C(C)C
Regarding B1, the “EC50 (cAMP induction)” value with human GIP receptor [1] was 47 pM; in experiment [2] it was 9.4 pM; in the experiment with human glucagon receptor [3], 57 pM; with human GIP receptor [4], 9 pM; in experiment [5] it was 57 pM; with human glucagon receptor [6] it was 57 pM.

B2: Compound 24 (peptide)
peptide: YAQGTFTSDYSIYLEKKAAKEFVEWLLSA
HELM: PEPTIDE1{Y.[Aib].Q.G.T.F.T.S.D.Y.S.I.Y.L.E.K.K.A.A.K.E.F.V.E.W.L.L.S.A.[am]}|PEPTIDE2{[CCCCCCCCCCCCCCCC(=O)[*:2]].[gGlu]}$PEPTIDE1,PEPTIDE2,16:R3-2:R2$$$V2.0
SMILES: CCCCCCCCCCCCCCCC(=O)N[C@@H](CCC(=O)NCCCC[C@H](NC(=O)[C@H](CCC(=O)O)NC(=O)[C@H](CC(C)C)NC(=O)[C@H](Cc1ccc(O)cc1)NC(=O)[C@@H](NC(=O)[C@H](CO)NC(=O)[C@H](Cc1ccc(O)cc1)NC(=O)[C@H](CC(=O)O)NC(=O)[C@H](CO)NC(=O)[C@@H](NC(=O)[C@H](Cc1ccccc1)NC(=O)[C@@H](NC(=O)CNC(=O)[C@H](CCC(N)=O)NC(=O)C(C)(C)NC(=O)[C@@H](N)Cc1ccc(O)cc1)[C@@H](C)O)[C@@H](C)O)[C@@H](C)CC)C(=O)N[C@@H](CCCCN)C(=O)N[C@@H](C)C(=O)N[C@@H](C)C(=O)N[C@@H](CCCCN)C(=O)N[C@@H](CCC(=O)O)C(=O)N[C@@H](Cc1ccccc1)C(=O)N[C@H](C(=O)N[C@@H](CCC(=O)O)C(=O)N[C@@H](Cc1c[nH]c2ccccc12)C(=O)N[C@@H](CC(C)C)C(=O)N[C@@H](CC(C)C)C(=O)N[C@@H](CO)C(=O)N[C@@H](C)C(N)=O)C(C)C)C(=O)O
Regarding B2, the “EC50 (cAMP induction)” value with human GIP receptor [1] was 100 pM; in experiment [2] it was 91 pM; in the experiment with human glucagon receptor [3], 280 pM; with human GIP receptor [4], 100 pM; in experiment [5], 91 pM; with human glucagon receptor [6], 280 pM.

B3: Compound 23 (peptide)
peptide: YAQGTFTSDYSIYLEKKAAKEFVEWLLSA
HELM: PEPTIDE1{Y.[Aib].Q.G.T.F.T.S.D.Y.S.I.Y.L.E.K.K.A.A.K.E.F.V.E.W.L.L.S.A.[am]}|PEPTIDE2{[CCCCCCCCCCCCCCCC(=O)[*:2]].[gGlu]}$PEPTIDE1,PEPTIDE2,17:R3-2:R2$$$V2.0
SMILES: CCCCCCCCCCCCCCCC(=O)N[C@@H](CCC(=O)NCCCC[C@H](NC(=O)[C@H](CCCCN)NC(=O)[C@H](CCC(=O)O)NC(=O)[C@H](CC(C)C)NC(=O)[C@H](Cc1ccc(O)cc1)NC(=O)[C@@H](NC(=O)[C@H](CO)NC(=O)[C@H](Cc1ccc(O)cc1)NC(=O)[C@H](CC(=O)O)NC(=O)[C@H](CO)NC(=O)[C@@H](NC(=O)[C@H](Cc1ccccc1)NC(=O)[C@@H](NC(=O)CNC(=O)[C@H](CCC(N)=O)NC(=O)C(C)(C)NC(=O)[C@@H](N)Cc1ccc(O)cc1)[C@@H](C)O)[C@@H](C)O)[C@@H](C)CC)C(=O)N[C@@H](C)C(=O)N[C@@H](C)C(=O)N[C@@H](CCCCN)C(=O)N[C@@H](CCC(=O)O)C(=O)N[C@@H](Cc1ccccc1)C(=O)N[C@H](C(=O)N[C@@H](CCC(=O)O)C(=O)N[C@@H](Cc1c[nH]c2ccccc12)C(=O)N[C@@H](CC(C)C)C(=O)N[C@@H](CC(C)C)C(=O)N[C@@H](CO)C(=O)N[C@@H](C)C(N)=O)C(C)C)C(=O)O
Turning to B3, the “EC50 (cAMP induction)” value turned out to be 130 pM in the experiment with human GIP receptor [1]; 110 pM in experiment [2]; 140 pM in the experiment with human glucagon receptor [3]; 110 pM in the experiment with human GIP receptor [4]; 140 pM in experiment [5]; 140 pM in the experiment with human glucagon receptor [6].

B4: Compound 21 (peptide)
peptide: YAQGTFTSDYSKALDEKAAKEFVEWLLSA
HELM: PEPTIDE1{Y.[Aib].Q.G.T.F.T.S.D.Y.S.K.A.L.D.E.K.A.A.K.E.F.V.E.W.L.L.S.A.[am]}$$$$V2.0
SMILES: CC(C)C[C@H](NC(=O)[C@H](C)NC(=O)[C@H](CCCCN)NC(=O)[C@H](CO)NC(=O)[C@H](Cc1ccc(O)cc1)NC(=O)[C@H](CC(=O)O)NC(=O)[C@H](CO)NC(=O)[C@@H](NC(=O)[C@H](Cc1ccccc1)NC(=O)[C@@H](NC(=O)CNC(=O)[C@H](CCC(N)=O)NC(=O)C(C)(C)NC(=O)[C@@H](N)Cc1ccc(O)cc1)[C@@H](C)O)[C@@H](C)O)C(=O)N[C@@H](CC(=O)O)C(=O)N[C@@H](CCC(=O)O)C(=O)N[C@@H](CCCCN)C(=O)N[C@@H](C)C(=O)N[C@@H](C)C(=O)N[C@@H](CCCCN)C(=O)N[C@@H](CCC(=O)O)C(=O)N[C@@H](Cc1ccccc1)C(=O)N[C@H](C(=O)N[C@@H](CCC(=O)O)C(=O)N[C@@H](Cc1c[nH]c2ccccc12)C(=O)N[C@@H](CC(C)C)C(=O)N[C@@H](CC(C)C)C(=O)N[C@@H](CO)C(=O)N[C@@H](C)C(N)=O)C(C)C
In the case of B4, the “EC50 (cAMP induction)” value in the experiment with human GIP receptor [1] is 180 pM; in experiment [2], 14 pM; with human glucagon receptor [3] it was 100 pM; with human GIP receptor [4], 15 pM; in experiment [5], 100 pM; with human glucagon receptor [6], 100 pM.

B5: Compound 22 (peptide)
peptide: YAQGTFTSDYSKYLEKKAQKEFVEWLLSA
HELM: PEPTIDE1{Y.[Aib].Q.G.T.F.T.S.D.Y.S.K.Y.L.E.K.K.A.Q.K.E.F.V.E.W.L.L.S.A.[am]}$$$$V2.0
SMILES: CC(C)C[C@H](NC(=O)[C@H](CC(C)C)NC(=O)[C@H](Cc1c[nH]c2ccccc12)NC(=O)[C@H](CCC(=O)O)NC(=O)[C@@H](NC(=O)[C@H](Cc1ccccc1)NC(=O)[C@H](CCC(=O)O)NC(=O)[C@H](CCCCN)NC(=O)[C@H](CCC(N)=O)NC(=O)[C@H](C)NC(=O)[C@H](CCCCN)NC(=O)[C@H](CCCCN)NC(=O)[C@H](CCC(=O)O)NC(=O)[C@H](CC(C)C)NC(=O)[C@H](Cc1ccc(O)cc1)NC(=O)[C@H](CCCCN)NC(=O)[C@H](CO)NC(=O)[C@H](Cc1ccc(O)cc1)NC(=O)[C@H](CC(=O)O)NC(=O)[C@H](CO)NC(=O)[C@@H](NC(=O)[C@H](Cc1ccccc1)NC(=O)[C@@H](NC(=O)CNC(=O)[C@H](CCC(N)=O)NC(=O)C(C)(C)NC(=O)[C@@H](N)Cc1ccc(O)cc1)[C@@H](C)O)[C@@H](C)O)C(C)C)C(=O)N[C@@H](CO)C(=O)N[C@@H](C)C(N)=O
For B5, the “EC50 (cAMP induction)” value with human GIP receptor [1] came out at 180 pM; in experiment [2], 28 pM; in the experiment with human glucagon receptor [3] it was 760 pM; with human GIP receptor [4], 30 pM; in experiment [5] it was 760 pM; in the experiment with human glucagon receptor [6], 760 pM.

Values taken from US10131702B2, “Glucagon-GLP-1-GIP triple agonist compounds” (priority 2013, dated 2018).
